Holding throughout (experiment): flow cytometry on cells
(A flow cytometer gives signals particle by particle.)

The target of test [1] is T1, Bak(72–89)–eCPX fusion displayed on E. coli (UniProt Q16611 72-89).
T1 chain (looked up): GQVGRQLAIIGDDINRRY

Test [2] has as its target T2, Bak(72–89) R88E–eCPX fusion displayed on E. coli (UniProt Q16611 72-89, R88E).
T2 chain (looked up): GQVGRQLAIIGDDINREY

Test [3] addresses T3, Bak(72–89) R88A–eCPX fusion displayed on E. coli (UniProt Q16611 72-89, R88A).
T3 chain (looked up): GQVGRQLAIIGDDINRAY

For test [4], the target named is T4, Bak(72–88)–eCPX fusion displayed on E. coli (UniProt Q16611 72-88).
T4 chain (looked up): GQVGRQLAIIGDDINRR

For test [5], the target named is T5, Bak(72–89) R88Q–eCPX fusion displayed on E. coli (UniProt Q16611 72-89, R88Q).
T5 chain (looked up): GQVGRQLAIIGDDINRQY

Test [6] deals with T6, Bak(72–89) Y89A–eCPX fusion displayed on E. coli (UniProt Q16611 72-89, Y89A).
T6 chain (looked up): GQVGRQLAIIGDDINRRA

Test [7] has as its target T7, Bak(72–87)–eCPX fusion displayed on E. coli (UniProt Q16611 72-87).
T7 chain (looked up): GQVGRQLAIIGDDINR

This note sets out measurements from article PMC2913173 (Journal of molecular biology, 2009).

B1: biotinylated Bcl-2 chimera (isoform 2): residues 1–34 of Bcl-2, residues 35–50 of Bcl-xL, residues 92–207 of Bcl-2 (other, UniProt P10415 1-34, looked up)
chain: MAHAGRTGYDNREIVMKYIHYKLSQRGYEWDAGDTEAPEGTESEMETPSAVVHLTLRQAGDDFSRRYRRDFAEMSSQLHLTPFTARGRFATVVEELFRDGVNWGRIVAFFEFGGVMCVESVNREMSPLVDNIALWMTEYLNRHLHTWIQDNGGWDAFVELYGPSMR
modifications: biotin on the lysine of the biotin acceptor peptide (…)
For the molecule B1, the median fluorescence in test [1] was 19.1 AU; in test [2], 8.4 AU; in test [3], 24.6 AU; in test [4] it was 8.3 AU; in test [5], 11.1 AU; in test [6], 11.9 AU. This molecule also displayed a median fluorescence in test [7] of 2.1 AU.
